Results on ten molecules are retold here after CN110606891A (L&L BIOPHARMA CO LTD, dated 2019).

Assay [1] deals with T1, 人CLDN18.1 (hCLDN18.1), claudin-18 isoform 1 precursor [Homo sapiens], NP_057453.1 (human, UniProt P56856 1-261).
T1 construct: No signal peptide limits stated for this entry; also called 人CLDN18.1+ 细胞; hCLDN18.1+ cell
T1 sequence: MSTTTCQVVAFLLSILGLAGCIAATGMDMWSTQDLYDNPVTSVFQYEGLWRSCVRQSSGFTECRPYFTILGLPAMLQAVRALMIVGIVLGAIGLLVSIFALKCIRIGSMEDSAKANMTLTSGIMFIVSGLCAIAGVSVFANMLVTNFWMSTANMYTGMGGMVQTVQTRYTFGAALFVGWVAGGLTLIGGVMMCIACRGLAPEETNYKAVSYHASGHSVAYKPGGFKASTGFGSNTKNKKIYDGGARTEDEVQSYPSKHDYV
The experiment in a line: cell ELISA, hybridoma supernatant on hCLDN18.1+ cells.

The target of assay [2] is T2, 人CLDN18.2 (hCLDN18.2), claudin-18 isoform 2 [Homo sapiens], NP_001002026.1 (human).
T2 construct: the whole gene was transfected; also called 人CLDN18.2+ 细胞; hCLDN18.2+ cell
As to the kind of experiment: cell ELISA, hybridoma supernatant on hCLDN18.2+ cells.

Assay [3] addresses T2, 人CLDN18.2 (hCLDN18.2), claudin-18 …. As to the kind of experiment: cell-based or functional assay.
For assay [4] the target is unchanged. As to the kind of experiment: cell ELISA on hCLDN18.2+ cells (Table 16a).
Assay [5] concerns the target T3, 鼠CLDN18.2 (mCLDN18.2), claudin-18 isoform A2.1 [Mus musculus], NP_001181850.1 (mouse, UniProt P56857 10-264).
T3 construct: also called 鼠CLDN18.2+细胞; mCLDN18.2+ cell
T3 chain: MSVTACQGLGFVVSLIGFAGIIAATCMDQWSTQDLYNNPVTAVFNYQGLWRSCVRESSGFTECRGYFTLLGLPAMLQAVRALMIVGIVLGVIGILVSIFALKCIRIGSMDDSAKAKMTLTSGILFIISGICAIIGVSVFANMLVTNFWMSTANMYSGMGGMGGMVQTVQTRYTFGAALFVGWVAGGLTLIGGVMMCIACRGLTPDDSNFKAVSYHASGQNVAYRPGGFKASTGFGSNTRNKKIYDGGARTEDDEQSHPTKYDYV
As to the kind of experiment: cell ELISA on mCLDN18.2+ cells (Table 23).

In assay [6] the target is T4, 鼠CLDN18.1 (mCLDN18.1), claudin-18 isoform A1.1 precursor, NP_062789.1 (mouse, UniProt P56857 1-264).
T4 construct: also called 鼠CLDN18.1+ 细胞; mCLDN18.1+ cell
T4 sequence: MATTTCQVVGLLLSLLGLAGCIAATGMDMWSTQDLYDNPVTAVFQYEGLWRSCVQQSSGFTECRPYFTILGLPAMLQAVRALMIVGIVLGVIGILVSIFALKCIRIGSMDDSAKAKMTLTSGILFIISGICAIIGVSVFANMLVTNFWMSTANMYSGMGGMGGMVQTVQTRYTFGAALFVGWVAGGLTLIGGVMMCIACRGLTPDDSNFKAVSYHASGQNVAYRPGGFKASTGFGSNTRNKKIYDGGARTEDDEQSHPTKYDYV
The experiment in a line: cell ELISA on mCLDN18.1+ cells.

Assay [7] addresses T1, 人CLDN18.1 (hCLDN18.1), claudin-18 …. The experiment in a line: cell ELISA on hCLDN18.1+ cells.
In assay [8] the target is T3, 鼠CLDN18.2 (mCLDN18.2), claudin-18 …. The experiment in a line: cell ELISA on mCLDN18.2+ cells, against Ref.
For assay [9] the target is unchanged. As to the kind of experiment: cell ELISA on mCLDN18.2+ cells.

B1: mab2 (初始杂交瘤克隆 F6B1, 上清) (antibody, V domains shown)
VH: EVQLLESGGGLVQPGGSLRLSCAASGFTFSSYGMSWVRQAPGKGLEWVAGIGSSGSDTWYADSVKGRFTISRDNSKNTLYLQMNSLRAEDTAVYYCAKDATNGYCWYTGRGSYSCGAHHIDAWGQGTLVTVSS
VL: SYELTQPPSVSVSPGQTARITCSGGSGSYGYYGWYQQKPGQAPVTVIYGTNKRPSGIPERFSGSSSGTTVTLTISGVQAEDEADYYCGGYDSSAGIFGGGTKLTVL
For B1, the “结合活性 (ELISA)” value in assay [1] came out at 0.123; in assay [2], 0.176.

B2: Ab66 (L21, H61, hIgG1 Fc S239D/A330L/I332E) (antibody)
heavy: QVQLVQSGAEVKKPGSSVKVSCKASGYAFSNYLIEWVRQAPGQGLEWMGLINPGSGGTNYNEKFKGKVTITADKSTSTAYMELSSLRSEDTAVYYCARVYYGNTFAYWGQGTLVTVSSASTKGPSVFPLAPSSKSTSGGTAALGCLVKDYFPEPVTVSWNSGALTSGVHTFPAVLQSSGLYSLSSVVTVPSSSLGTQTYICNVNHKPSNTKVDKKVEPKSCDKTHTCPPCPAPELLGGPDVFLFPPKPKDTLMISRTPEVTCVVVDVSHEDPEVKFNWYVDGVEVHNAKTKPREEQYNSTYRVVSVLTVLHQDWLNGKEYKCKVSNKALPLPEEKTISKAKGQPREPQVYTLPPSRDELTKNQVSLTCLVKGFYPSDIAVEWESNGQPENNYKTTPPVLDSDGSFFLYSKLTVDKSRWQQGNVFSCSVMHEALHNHYTQKSLSLSPGK
light: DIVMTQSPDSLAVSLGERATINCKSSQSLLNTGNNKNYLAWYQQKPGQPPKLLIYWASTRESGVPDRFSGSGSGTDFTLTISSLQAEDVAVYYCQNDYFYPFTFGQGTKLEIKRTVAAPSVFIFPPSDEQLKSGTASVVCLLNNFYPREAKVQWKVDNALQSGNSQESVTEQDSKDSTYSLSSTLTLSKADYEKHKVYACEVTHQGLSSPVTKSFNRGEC
For the molecule B2, in [3], the “CDC EC50 (人血清补体对hCLDN18.2+细胞, LDH)” value worked out at 0.927 µg/mL.

B3: Ab60 (L12, H51, hIgG1 Fc S239D/A330L/I332E) (antibody)
heavy: QVQLVQSGAEVKKPGSSVKVSCKASGYAFSNYLIEWVKQAPGQGLEWIGLINPGSGGTNYNEKFKGKATITADKSTSTAYMELSSLRSEDTAVYYCARVYYGNSFAYWGQGTLVTVSSASTKGPSVFPLAPSSKSTSGGTAALGCLVKDYFPEPVTVSWNSGALTSGVHTFPAVLQSSGLYSLSSVVTVPSSSLGTQTYICNVNHKPSNTKVDKKVEPKSCDKTHTCPPCPAPELLGGPDVFLFPPKPKDTLMISRTPEVTCVVVDVSHEDPEVKFNWYVDGVEVHNAKTKPREEQYNSTYRVVSVLTVLHQDWLNGKEYKCKVSNKALPLPEEKTISKAKGQPREPQVYTLPPSRDELTKNQVSLTCLVKGFYPSDIAVEWESNGQPENNYKTTPPVLDSDGSFFLYSKLTVDKSRWQQGNVFSCSVMHEALHNHYTQKSLSLSPGK
light: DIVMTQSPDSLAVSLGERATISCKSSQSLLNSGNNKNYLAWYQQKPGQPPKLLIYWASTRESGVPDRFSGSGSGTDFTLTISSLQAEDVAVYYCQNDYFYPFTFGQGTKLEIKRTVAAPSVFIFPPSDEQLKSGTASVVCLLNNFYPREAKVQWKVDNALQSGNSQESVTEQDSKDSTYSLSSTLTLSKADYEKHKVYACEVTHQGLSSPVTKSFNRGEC
With B3, in [3], the “ADCC EC50 (PBMC对hCLDN18.2+细胞, LDH)” value amounted to 0.431 µg/mL and the “CDC EC50 (人血清补体对hCLDN18.2+细胞, LDH)” value turned out to be 0.973 µg/mL.

B4: mab1 (初始杂交瘤克隆 F2A4, 上清) (antibody, V domains shown)
VH: EVQLLESGGGLVQPGGSLRLSCAASGFTFSSYGMGWVRQAPGKGLEWVAAITRDSSTNYGAAVKGRATISRDNSKNTLYLQMNSLRAEDTAVYYCAKDASNGYCWYTGRGSYSCGAHHIDAWGQGTLVTVSS
VL: SYELTQPPSVSVSPGQTARITCSGGYNGHYGWYQQKPGQAPVTVIYSNNQRPSGIPERFSGSSSGTTVTLTISGVQAEDEADYYCGGYDSSAGIFGGGTKLTVL
Consider B4, for which the figures for the “结合活性 (ELISA)” value in [1] and in assay [2] were 1.19 and 1.62, respectively.

B5: mab3 (初始杂交瘤克隆 C6F9, 上清) (antibody, V domains shown)
VH: EVQLLESGGGLVQPGGSLRLSCAASGFTFRSYAMMWVRQAPGKGLEWVGEISSTGGSTYYGSAVKGRATISRDNSKNTLYLQMNSLRAEDTAVYYCAKSTYGATWKSADSIDAWGQGTLVTVSS
VL: SYELTQPPSVSVSPGQTARITCSGGYNGHYGWYQQKPGQAPVLVIYSNNQRPSGIPERFSGSSSGTTVTLTISGVQAEDEADYYCGGYDSSAGIFGGGTKLTVL
Turning to B5, the “结合活性 (ELISA)” value was 0.448 in assay [1] and 0.671 in assay [2].

B6: Ab22 (轻链CDR1 NS-> TS, 重链 CDR3 NS-> NT) (antibody, V domains shown)
VH: EVMLVESGGGLVKPGGSLKLSCAASGFTFSSYTMSWVRQTPEKRLEWVATIIGGYGNTYYADSVKGRFTISRDSAKNTLYLQMISLRSEDTALYYCTRLGQTQRNAMDYWGQGTSVTVSS
VL: DILMTQSPSSLSVSAGEKVTMSCKSSQSLLNSGNQKNYLAWYQQKPGQPPKLLIYGASTRESGVPDTFTGSGSGTDFTLTISSVQAEDLAVYYCQNDYYYPFTFGAGTKLEL
As to B6, the EC50 in assay [4] worked out at 1.37 nM.

B7: Ab36抗体 (antibody, human IgG1, kappa, V domains shown)
VH: QVQLVQSGAEVKKPGSSVKVSCKASGYAFSNYLIEWVKQAPGQGLEWIGLINPGSGGTNYNEKFKGKATITADKSTSTAYMELSSLRSEDTAVYYCARVYYGNTFAYWGQGTLVTVSS
VL: DIVMTQSPDSLAVSLGERATISCKSSQSLLNTGNNKNYLAWYQQKPGQPPKLLIYWASTRESGVPDRFSGSGSGTDFTLTISSLQAEDVAVYYCQNDYFYPFTFGQGTKLEIKR
notes: Ab6 with NS->NT in light CDR1 and heavy CDR3; hIgG1 / kappa
In assay [5], B7 came in with a concentration giving a half-maximal response (EC50) of 0.518 nM and an Emax of 2.18. Moreover, in [6], the binding result was “no binding”. Further, in [3], the “CDC EC50 (人血清补体对hCLDN18.2+细胞, LDH)” value was found to be 1.75 µg/mL.

B8: 人源化Ab10抗体 (antibody, human IgG1, kappa, V domains shown)
VH: QVQLVQSGAEVKKPGSSVKVSCKASGYAFSNYLIEWVKQAPGQGLEWIGLINPGSGGTNYNEKFKGKATITADKSTSTAYMELSSLRSEDTAVYYCARVYYGNSFAYWGQGTLVTVSS
VL: DIVMTQSPDSLAVSLGERATISCKSSQSLLNSGNQKNYLTWYQQKPGQPPKLLIYWASTRESGVPDRFSGSGSGTDFTLTISSLQAEDVAVYYCQNDYFYPFTFGQGTKLEIKR
notes: Humanized, hIgG1 (356-358 DEL) / kappa; also called L14/H51
On to B8, for which, in [7], the binding result is “no binding”. In [5], this molecule registered an EC50 of 0.371 nM and an Emax of 2.27. Also, in assay [6], the binding result was “no binding”.

B9: Ab51抗体 (antibody, human IgG1, kappa, V domains shown)
VH: QVQLVQSGAEVKKPGSSVKVSCKASGYAFSNYLIEWVRQAPGQGLEWMGLINPGSGGTNYNEKFKGRVTITADESTSTAYMELSSLRSEDTAVYYCARVYYGNTFAYWGQGTLVTVSS
VL: DIVMTQSPDSLAVSLGERATINCKSSQSLLNTGNNKNYLAWYQQKPGQPPKLLIYWASTRESGVPDRFSGSGSGTDFTLTISSLQAEDVAVYYCQNDYFYPFTFGQGTKLEIKR
notes: hIgG1 (DEL) / kappa; also called L21/H64 DEL
Take B9: in assay [5], the response was half-maximal at 0.474 nM (EC50) and the Emax was found to be 1.91. In addition, the binding result in [6] is “no binding”. Besides, in [3], the “CDC EC50 (人血清补体对hCLDN18.2+细胞, LDH)” value was 2.12 µg/mL.

B10: anti-hCLDN18.2抗体mab5b (重组表达) (antibody, human IgG1, kappa, V domains shown)
VH: QVQLQQSGAELIGPGTSVKVSCKASGYAFSNYLIEWVKQRPEQGLEWIGLINPGSGGTNYNEKFKGKATLTADKSSSTAYMQLSSLTSDDSAVYFCARVYYGNSFAYWGQGTLVTVSA
VL: DIVMTQSPSSLTVTAGEKVTMSCKSSQSLLNSGNQKNYLTWYQQKPGQPPKLLIYWASTRESGVPDRFTGSGSGTHFTLTISSVQAEDLAVYYCQNDYFYPFTFGSGTKLEKKR
notes: also called 鼠源抗体mab5b
In assay [5], B10 came in with an EC50 of 0.375 nM and an Emax of 2.17. In assay [8], the “结合活性 (EC50) 比Ref好的倍数” value was > 4 倍. Moreover, in assay [9], the EC50 was 0.182 nM.
